The target of the experiment is LC3 (Microtubule-associated protein 1A/1B-light chain 3) (UniProt Q9GZQ8 1-120). As to the kind of experiment: ITC; 100 µM LC3 titrated into 10 µM PfUIS3; MicroCal ITC 200, 25 °C; 50 mM sodium phosphate, 150 mM NaCl, pH 6.5; one-site binding model. Particulars: both partners purified.

B1: Plasmodium falciparum UIS3 (Upregulated in infective sporozoites 3) (natural protein)
chain: INKINLNKPIIENKNNVDVSIKRYNNFVDIARLSIQKHFEHLSNDQKDSHVNNMEYMQKFVQGLQENRNISLSKYQENKAVMDLKYHLQKVYANYLSQEEN
modifications: Construct limits are not given; the soluble domain is taken from PDB 2VWA, which the paper cites for PfUIS3. The His tag was removed with thrombin; the residual myc tag is left out.
In the case of B1, the Kd (as a rule, the equilibrium constant for the complex coming apart) was determined as 2150 ± 121 nM.

(Values after publication PMC7677311, “Disrupting Plasmodium UIS3–host LC3 interaction with a small molecule causes parasite elimination from host cells” (Communications Biology, 2020).)
